From US20150166606A1 (RA PHARMACEUTICALS, published 2015)
Numbered stars: 1 amine (or outer) side, 2 acyl side, 3 side chain; on linkers, the order of the positions; unused ones are H or OH. Bridge positions count the residues as written; N and C are the ends. Square brackets hold non-standard residues; d marks the D form. Primed or numbered codes have the meaning given here. Ends that are not written are not given here. mXylyl = xylyl linker from dibromoxylene joining the two cysteines; mXylyl″ = dibromoxylene linker (meta) joining the cysteines; 4‑BZA = 2-amino-3-(4-carbamimidoylphenyl)propanoic acid; des‑NH2 = missing amino-terminal amine group; pXylylene = c1cc(C[*:2])ccc1C[*:1]; NMeR = CN[C@@H](CCCNC(=N)N)C(=O)O; Chg = N[C@H](C(=O)O)C1CCCCC1; Tle = CC(C)(C)[C@H](N)C(=O)O; NMeS = CN[C@@H](CO)C(=O)O; Orn = NCCC[C@H](N)C(=O)O; Ac5c = NC1(C(=O)O)CCCC1; Thp = NC1(C(=O)O)CCOCC1; Aib = CC(C)(N)C(=O)O; Mpa = O=C(O)CCS

Biological target: Activated human plasma kallikrein (Enzyme Research Laboratories, HPKa 1303) (human, UniProt P03952 20-638)
Assay: cell-based or functional assay

Sequence of Activated human plasma kallikrein (Enzyme Research Laboratories, HPKa 1303) (P03952 20-638 limits assumed): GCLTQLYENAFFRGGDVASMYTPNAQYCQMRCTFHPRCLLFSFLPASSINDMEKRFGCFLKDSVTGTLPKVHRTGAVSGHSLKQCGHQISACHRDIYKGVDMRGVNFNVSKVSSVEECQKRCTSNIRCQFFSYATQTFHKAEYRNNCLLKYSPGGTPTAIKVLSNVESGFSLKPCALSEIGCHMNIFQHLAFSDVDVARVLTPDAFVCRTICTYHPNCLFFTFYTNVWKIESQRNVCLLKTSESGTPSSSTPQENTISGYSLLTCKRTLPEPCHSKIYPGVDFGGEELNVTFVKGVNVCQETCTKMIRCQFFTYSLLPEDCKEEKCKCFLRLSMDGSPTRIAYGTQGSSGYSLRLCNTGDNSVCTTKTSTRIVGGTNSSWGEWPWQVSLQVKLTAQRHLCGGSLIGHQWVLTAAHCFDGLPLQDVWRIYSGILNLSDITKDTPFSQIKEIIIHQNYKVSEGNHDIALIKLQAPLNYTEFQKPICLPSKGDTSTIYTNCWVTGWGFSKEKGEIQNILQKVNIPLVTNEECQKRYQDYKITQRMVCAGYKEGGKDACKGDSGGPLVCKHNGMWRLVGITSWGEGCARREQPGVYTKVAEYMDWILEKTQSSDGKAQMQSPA

[Mpa]SICRV-NH2 (linker 1-4 via mXylyl) [R2155]
Avg. IC50: 66.3 nM

B1: R2156 (peptide)
peptide: [Mpa]SICRV-NH2
modifications: linker 1-4 via pXylylene
SMILES: CC[C@H](C)[C@@H]1NC(=O)[C@H](CO)NC(=O)CCSCc2ccc(cc2)CSC[C@@H](C(=O)N[C@@H](CCCNC(=N)N)C(=O)N[C@H](C(N)=O)C(C)C)NC1=O
Avg. IC50: 1530 nM

[Mpa][Aib]A[Chg]CR[Tle]PC-NH2 (linker 1-5-9 via 1,3,5‑Xylyl) [R2157]
Avg. IC50: > 14300 nM

[Mpa][Aib]A[Chg]CR[Tle]LRYC-NH2 (linker 1-5-11 via 1,3,5‑Xylyl) [R2158]
Avg. IC50: 2340 nM

Ac-[Chg]CRVAC-NH2 (linker 2-6 via mXylyl) [R2159]
Avg. IC50: > 20100 nM

Ac-[Chg]CRVPC-NH2 (linker 2-6 via mXylyl) [R2160]
Avg. IC50: > 100000 nM

[Mpa]SICRV-NH2 (linker 1-4 via oXylyl) [R2161]
Avg. IC50: 2230 nM

[Mpa][Aib]A[Chg]CR-{2‑amino‑3,3‑dimethylbutan‑1‑ol} (linker 1-5 via mXylyl) [R2162]
Avg. IC50: 466 nM

MCESIC[NMeR]V-NH2 (linker 2-6 via mXylyl) [R2163]
Avg. IC50: 1960 nM

{des‑NH2}-CS[Chg]CR[Tle]-NH2 (linker 1-4 via mXylyl) [R2164]
Avg. IC50: 10.1 nM

{des‑NH2}-C[NMeS][Chg]CR[Tle]-NH2 (linker 1-4 via mXylyl) [R2165]
Avg. IC50: 82.1 nM

[Mpa][Thp]A[Chg]C[4‑BZA]V-NH2 (linker 1-5 via mXylyl) [R2166]
Avg. IC50: 310 nM

{des‑NH2}-CP[Chg]CR[Tle]-NH2 (linker 1-4 via mXylyl) [R2167]
Avg. IC50: 10.7 nM

[Mpa][Ac5c][Chg]CR[Tle]-NH2 (linker 1-4 via mXylyl) [R2168]
Avg. IC50: 11.3 nM

[Mpa][Ac5c]A[Chg]CR[Tle]-NH2 (linker 1-5 via mXylyl) [R2169]
Avg. IC50: 1.9 nM

[Mpa][Ac5c]A[Chg]CR[Tle]LRY-NH2 (linker 1-5 via mXylyl) [R2170]
Avg. IC50: 2.1 nM

B2: R2171 (peptide)
peptide: CESICRV-NH2
modifications: linker 1-5 via mXylyl″; not fully specified (residues 1, 6, N-terminus); printed as [mXylyl(1,5)](des-NH2)C-ESIC-r-V-NH2
Avg. IC50: > 100000 nM

[Mpa]ESIC[Orn]V-NH2 (linker 1-5 via mXylyl) [R2172]
Avg. IC50: > 100000 nM

[Mpa][Ac5c][Chg]CK[Tle]-NH2 (linker 1-4 via mXylyl) [R2174]
Avg. IC50: 870 nM

[Mpa][Ac5c]A[Chg]CRV-OH (linker 1-5 via mXylyl) [R2175]
Avg. IC50: 379 nM
